Experimental findings from patent US5567433A, “Liposome preparation and material encapsulation method” (Amgen Inc., priority 1995, dated 1996) are described below.

The nature of data set [1]: In vivo release after subcutaneous injection into rats. Particulars: either liposome composition. Also on record: species or system Sprague-Dawley rats. Here is the method:
Liposomes composed of either DPPC or DMPG:DSPC:CHOL (1:4:5 molar) were prepared substantially in accordance with Method 4, above, to contain either ^125 I-tyraminyl inulin (at a final specific activity of 0.4×10^6 dpm/ml) or ^125 I-rhG-CSF (at a final specific activity of 1×10^6 dpm/ml). (See: ^125 I-labeled Inulin: A convenient marker for deposition of liposome contents in vivo. Sommerman, E. F., Pritchard, P. H. and Cullis, P. R. Biochem Biophys Res Coramerc Vol. 122(1), 319-324; 1984.) The final lipid composition was 30 mM. The injection site was marked. At various times after injection, the rats were sacrificed and the injection site was excised and counted for remaining ^125 I. Percent release was defined as %Release=100(1-DPMt /DPMo), where DPMt is the dpm remaining at the site at time t, and DPMo is the initial dpm injected (t=0).

Data set [2] in a line: Encapsulation of various protein therapeutics and oligonucleotides using Method 4. In kind it is physicochemical. Particulars: up to; present invention.
Protocol: Lipid films, prepared as described in Method 1, were hydrated in water and sonicated. The sonicated dispersions were then subjected to 3-5 cycles of freezing (dry ice/acetone) and thawing (37° C). The dispersions were freeze dried and ground as in Method 2 to form a lipid powder. The powder was subsequently hydrated in G-CSF, and the liposome-encapsulated material was microfluidized as described in Method 1. Unencapsulated G-CSF was separated from encapsulated G-CSF as described in Method 2.
The lipid samples were prepared, sonicated and subjected to freeze/thaw cycles as described in Method 3. Prior to dehydrating the sample, D-mannitol was added (1:1 weight ratio to lipid) as a bulking agent. The samples were freeze-dried and rehydrated, upon use, as described in Method 3. Hydration and microfluidization was carried out as described in Method 1. The samples were then dialyzed as described in Method 2.
The next data set relates to G-CSF. Put plainly: Reverse phase HPLC of encapsulated G-CSF. The format is physicochemical, human. As to conditions: C4 reverse phase HPLC. The text has this: Biologically active material encapsulated in accordance with Method 4, above, was also subjected to reverse phase high pressure liquid chromatography (HPLC) to determine whether liposome-encapsulation led to structural changes in the encapsulated material. For example, G-CSF alone or encapsulated in DMPG:DSPC:CHOL (1:4:5) liposomes was examined by C4 reverse phase HPLC under the following conditions:
Buffer A: 0.1% trifluoroacetic acid in water
Buffer B: 0.1% trifluoroacetic acid in 90% acetonitrile
Gradient: 0-90% B in 60 minutes
Flow rate: 0.8 milliliter/minute
Detection: 220 nanometers
Thirty micrograms of G-CSF was loaded per run. Liposomes were lysed in 40% methanol for 30 minutes at 37° C. prior to chromatography.

As for inulin [reference compound], in data set [1], the “leakage of inulin or G-CSF” value is recorded as “No significant difference”.

B1: G-CSF: recombinant human granulocyte colony stimulating factor (protein, UniProt P09919 31-207, looked up)
Granulocyte …: TPLGPASSLPQSFLLKCLEQVRKIQGDGAALQEKLVSECATYKLCHPEELVLLGHSLGIPWAPLSSCPSQALQLAGCLSQLHSGLFLYQGLLQALEGISPELGPTLDTLQLDVADFATTIWQQMEELGMAPALQPTQGAMPAFASAFQRRAGGVLVASHLQSFLEVSYRVLRHLAQP
Regarding B1, the “Encapsulation of input” value in data set [2] is recorded as 80-90%. Moreover, in the data set with G-CSF, the “material destruction or aggregation upon encapsulation” value was “no material destruction or aggregation”. Moreover, in the data set on G-CSF (liposomes lysed in 40% methanol), the “structural integrity of G-CSF released from liposomes” value is listed as “structurally identical to G-CSF which was never encapsulated”. In addition, in the data set on G-CSF (30 μg G-CSF injected), the Recovery worked out at 100%. In data set [1], the “leakage of inulin or G-CSF” value is listed as “No significant difference”.
